Data on two molecules can be found in paper PMC4324353 (2014).

The target in this test is actin (Oryctolagus cuniculus, UniProt P68135).

B1: Spire Sc3d WH2 c-Linker 3-WH2 d (second actin at Sc) (protein)
chain: KKDAHAMILEFIRSRPPLKKASDRQLGPPRMCEPSPREQLMESIRKGKELKQITPPEA
A word on the Kd: it is the equilibrium constant for the complex coming apart. A lower Kd goes with a tighter complex. Molecule B1 yielded a Kd of 10 nM. This lies in the double-digit nanomolar range.

B2: Spire Sc3d WH2 c-Linker 3-WH2 d (second actin at Sd) (protein)
chain: KKDAHAMILEFIRSRPPLKKASDRQLGPPRMCEPSPREQLMESIRKGKELKQITPPEA
Take B2: the Kd amounted to 30 nM.
